Experimental data published in patent US20180355014A1.

Each binder was assayed against HLA-A*11:01 (human) (assay: REVEAL MHC-peptide binding assay, recombinant HLA-A*11:01). Details: remark: other sources report otherwise.

Row | Binder | In Vitro Score (% of positive control peptide)
1 | VAFIIFWVK [… (SEQ ID NO: 16)] | 109
2 | IIFWVKRGR [… (SEQ ID NO: 19)] | 54.5
3 | VAFIIFWVS [… (SEQ ID NO: 23)] | 25.1
4 | AFIIFWVSR [… (SEQ ID NO: 24)] | 54
5 | IIFWVSRGR [… (SEQ ID NO: 26)] | 68.9
6 | IIFWVLRGR [… (SEQ ID NO: 33)] | 35.2
7 | AFIIFWVHR [… (SEQ ID NO: 38)] | 34.9
8 | FIIFWVHRG [… (SEQ ID NO: 39)] | 0.9
9 | IIFWVHRGR [… (SEQ ID NO: 40)] | 77.5
10 | IFWVHRGRK [… (SEQ ID NO: 41)] | 36.6
11 | AFIIFWVAR [… (SEQ ID NO: 45)] | 51.8
12 | IIFWVARGR [… (SEQ ID NO: 46)] | 70.6
13 | IFWVARGRK [… (SEQ ID NO: 47)] | 34.9
14 | WVARGRKKL [… (SEQ ID NO: 49)] | 13.8
15 | IIFWVQRGR [… (SEQ ID NO: 53)] | 72.8
16 | IFWVQRGRK [… (SEQ ID NO: 54)] | 128
17 | WVQRGRKKL [… (SEQ ID NO: 56)] | 12.8

Row | Binder | In Vitro Score (% of positive control peptide)
18 | IFWVKRGSK [… (SEQ ID NO: 58)] | 47.9
19 | WVKRGSKKL [… (SEQ ID NO: 60)] | 11.8
20 | IIFWVKRGL [… (SEQ ID NO: 61)] | 32.4
21 | IFWVKRGLK [… (SEQ ID NO: 62)] | 61.1
22 | IFWVKRGHK [… (SEQ ID NO: 66)] | 30.9
23 | WVKRGHKKL [… (SEQ ID NO: 68)] | 2.8
24 | IIFWVKRGA [… (SEQ ID NO: 69)] | 22.6
25 | IFWVKRGAK [… (SEQ ID NO: 70)] | 69.7
26 | WVKRGAKKL [… (SEQ ID NO: 72)] | 4.6
27 | IIFWVKRGN [… (SEQ ID NO: 73)] | 42.1
28 | IFWVKRGNK [… (SEQ ID NO: 74)] | 45.9
29 | WVKRGNKKL [… (SEQ ID NO: 76)] | 4.1
30 | IIFWVQRGA [… (SEQ ID NO: 81)] | 56.5
31 | IFWVQRGAK [… (SEQ ID NO: 82)] | 61.3
32 | IFWVQRGNK [… (SEQ ID NO: 86)] | 67.5
33 | WVQRGNKKL [… (SEQ ID NO: 88)] | 10.7

Each binder was assayed against HLA-B*08:01 (human) (assay: REVEAL MHC-peptide binding assay, recombinant HLA-B*08:01). Details: remark: other sources report otherwise.

Row | Binder | In Vitro Score (% of positive control peptide)
34 | VAFIIFWVK [… (SEQ ID NO: 16)] | 0.3
35 | IIFWVKRGR [… (SEQ ID NO: 19)] | 0
36 | VAFIIFWVS [… (SEQ ID NO: 23)] | 0.1
37 | IIFWVSRGR [… (SEQ ID NO: 26)] | 0
38 | IFWVSRGRK [… (SEQ ID NO: 27)] | 0
39 | IIFWVLRGR [… (SEQ ID NO: 33)] | 0.4
40 | FIIFWVHRG [… (SEQ ID NO: 39)] | 0.2
41 | IIFWVHRGR [… (SEQ ID NO: 40)] | 0.2
42 | IFWVHRGRK [… (SEQ ID NO: 41)] | 0.1
43 | AFIIFWVAR [… (SEQ ID NO: 45)] | 0.2
44 | IIFWVARGR [… (SEQ ID NO: 46)] | 0.3
45 | IFWVARGRK [… (SEQ ID NO: 47)] | 0
46 | WVARGRKKL [… (SEQ ID NO: 49)] | 32.4
47 | IIFWVQRGR [… (SEQ ID NO: 53)] | 0.1
48 | IFWVQRGRK [… (SEQ ID NO: 54)] | 0
49 | WVQRGRKKL [… (SEQ ID NO: 56)] | 45.1
50 | IIFWVKRGS [… (SEQ ID NO: 57)] | 0.4

Row | Binder | In Vitro Score (% of positive control peptide)
51 | IFWVKRGSK [… (SEQ ID NO: 58)] | 1.2
52 | WVKRGSKKL [… (SEQ ID NO: 60)] | 56.1
53 | IIFWVKRGL [… (SEQ ID NO: 61)] | 1.7
54 | IFWVKRGLK [… (SEQ ID NO: 62)] | 58.3
55 | IFWVKRGHK [… (SEQ ID NO: 66)] | 3.2
56 | WVKRGHKKL [… (SEQ ID NO: 68)] | 47.6
57 | IIFWVKRGA [… (SEQ ID NO: 69)] | 0.9
58 | IFWVKRGAK [… (SEQ ID NO: 70)] | 2.2
59 | WVKRGAKKL [… (SEQ ID NO: 72)] | 34.1
60 | IIFWVKRGN [… (SEQ ID NO: 73)] | 0.9
61 | IFWVKRGNK [… (SEQ ID NO: 74)] | 0.1
62 | WVKRGNKKL [… (SEQ ID NO: 76)] | 65.9
63 | IIFWVQRGA [… (SEQ ID NO: 81)] | 0.2
64 | IFWVQRGAK [… (SEQ ID NO: 82)] | 0.2
65 | IFWVQRGNK [… (SEQ ID NO: 86)] | 0.1
66 | WVQRGNKKL [… (SEQ ID NO: 88)] | 32
